# According to article PMC5446404 (2017):
# T1: recombinant human fortilin (Strep-tag II), biotinylated (human, UniProt P13693 1-172, biotinylated (sites not given))
# T1 chain: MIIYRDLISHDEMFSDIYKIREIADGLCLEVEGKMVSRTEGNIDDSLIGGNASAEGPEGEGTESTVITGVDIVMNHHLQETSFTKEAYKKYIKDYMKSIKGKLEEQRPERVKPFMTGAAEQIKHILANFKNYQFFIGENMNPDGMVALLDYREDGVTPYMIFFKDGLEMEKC
# Experiments:
# [1] = molecular target: T1, recombinant human fortilin (Strep-tag …); experiment: BLI
# [2] = molecular target: T1, recombinant human fortilin (Strep-tag …); experiment: BLI; dephosphorylated IRE1α
# [3] = molecular target: T1, recombinant human fortilin (Strep-tag …); experiment: BLI; phosphorylated IRE1α
Binder,Kd [1],also measured
GST-IRE1α-C (aa 468-977) (domain or fragment) MHQQQQLQHQQFQKELEKIQLLQQQQQQLPFHPPGDTAQDGELLDTSGPYSESSGTSSPSTSPRASNHSLCSGSSASKAGSSPSLEQDDGDEETSVVIVGKISFCPKDVLGHGAEGTIVYRGMFDNRDVAVKRILPECFSFADREVQLLRESDEHPNVIRYFCTEKDRQFQYIAIELCAATLQEYVEQKDFAHLGLEPITLLQQTTSGLAHLHSLNIVHRDLKPHNILISMPNAHGKIKAMISDFGLCKKLAVGRHSFSRRSGVPGTEGWIAPEMLSEDCKENPTYTVDIFSAGCVFYYVISEGSHPFGKSLQRQANILLGACSLDCLHPEKHEDVIARELIEKMIAMDPQKRPSAKHVLKHPFFWSLEKQLQFFQDVSDRIEKESLDGPIVKQLERGGRAVVKMDWRENITVPLQTDLRKFRTYKGGSVRDLLRAMRNKKHHYRELPAEVRETLGSLPDDFVCYFTSRFPHLLAHTYRAMELCSHERLFQPYYFHEPPEPQPPVTPDAL,0.00067 mM,
de-phosphorylated IRE1α-Myc-DDK (aa 1-977) (natural protein) IFGSTSTVTLPETLLFVSTLDGSLHAVSKRTGSIKWTLKEDPVLQVPTHVEEPAFLPDPNDGSLYTLGSKNNEGLTKLPFTIPELVQASPCRSSDGILYMGKKQDIWYVIDLLTGEKQQTLSSAFADSLCPSTSLLYLGRTEYTITMYDTKTRELRWNATYFDYAASLPEDDVDYKMSHFVSNGDGLVVTVDSESGDVLWIQNYASPVVAFYVWQREGLRKVMHINVAVETLRYLTFMSGEVGRITKWKYPFPKETEAKSKLTPTLYVGKYSTSLYASPSMVHEGVAVVPRGSTLPLLEGPQTDGVTIGDKGECVITPSTDVKFDPGLKSKNKLNYLRNYWLLIGHHETPLSASTKMLERFPNNLPKHRENVIPADSEKKSFEEVINLVDQTSENAPTTVSRDVEEKPAHAPARPEAPVDSMLKDMATIILSTFLLIGWVAFIITYPLSMHQQQQLQHQQFQKELEKIQLLQQQQQQLPFHPPGDTAQDGELLDTSGPYSESSGTSSPSTSPRASNHSLCSGSSASKAGSSPSLEQDDGDEETSVVIVGKISFCPKDVLGHGAEGTIVYRGMFDNRDVAVKRILPECFSFADREVQLLRESDEHPNVIRYFCTEKDRQFQYIAIELCAATLQEYVEQKDFAHLGLEPITLLQQTTSGLAHLHSLNIVHRDLKPHNILISMPNAHGKIKAMISDFGLCKKLAVGRHSFSRRSGVPGTEGWIAPEMLSEDCKENPTYTVDIFSAGCVFYYVISEGSHPFGKSLQRQANILLGACSLDCLHPEKHEDVIARELIEKMIAMDPQKRPSAKHVLKHPFFWSLEKQLQFFQDVSDRIEKESLDGPIVKQLERGGRAVVKMDWRENITVPLQTDLRKFRTYKGGSVRDLLRAMRNKKHHYRELPAEVRETLGSLPDDFVCYFTSRFPHLLAHTYRAMELCSHERLFQPYYFHEPPEPQPPVTPDAL,,Kd [2]: 1050 nM
"recombinant human phospho-IRE1α-Myc-DDK (aa 1-977) (natural protein, phosphorylated (sites not stated for this preparation)) IFGSTSTVTLPETLLFVSTLDGSLHAVSKRTGSIKWTLKEDPVLQVPTHVEEPAFLPDPNDGSLYTLGSKNNEGLTKLPFTIPELVQASPCRSSDGILYMGKKQDIWYVIDLLTGEKQQTLSSAFADSLCPSTSLLYLGRTEYTITMYDTKTRELRWNATYFDYAASLPEDDVDYKMSHFVSNGDGLVVTVDSESGDVLWIQNYASPVVAFYVWQREGLRKVMHINVAVETLRYLTFMSGEVGRITKWKYPFPKETEAKSKLTPTLYVGKYSTSLYASPSMVHEGVAVVPRGSTLPLLEGPQTDGVTIGDKGECVITPSTDVKFDPGLKSKNKLNYLRNYWLLIGHHETPLSASTKMLERFPNNLPKHRENVIPADSEKKSFEEVINLVDQTSENAPTTVSRDVEEKPAHAPARPEAPVDSMLKDMATIILSTFLLIGWVAFIITYPLSMHQQQQLQHQQFQKELEKIQLLQQQQQQLPFHPPGDTAQDGELLDTSGPYSESSGTSSPSTSPRASNHSLCSGSSASKAGSSPSLEQDDGDEETSVVIVGKISFCPKDVLGHGAEGTIVYRGMFDNRDVAVKRILPECFSFADREVQLLRESDEHPNVIRYFCTEKDRQFQYIAIELCAATLQEYVEQKDFAHLGLEPITLLQQTTSGLAHLHSLNIVHRDLKPHNILISMPNAHGKIKAMISDFGLCKKLAVGRHSFSRRSGVPGTEGWIAPEMLSEDCKENPTYTVDIFSAGCVFYYVISEGSHPFGKSLQRQANILLGACSLDCLHPEKHEDVIARELIEKMIAMDPQKRPSAKHVLKHPFFWSLEKQLQFFQDVSDRIEKESLDGPIVKQLERGGRAVVKMDWRENITVPLQTDLRKFRTYKGGSVRDLLRAMRNKKHHYRELPAEVRETLGSLPDDFVCYFTSRFPHLLAHTYRAMELCSHERLFQPYYFHEPPEPQPPVTPDAL",,Kd [3]: 320 nM
GST-IRE1α-TM (aa 401-500) (domain or fragment) EEVINLVDQTSENAPTTVSRDVEEKPAHAPARPEAPVDSMLKDMATIILSTFLLIGWVAFIITYPLSMHQQQQLQHQQFQKELEKIQLLQQQQQQLPFHP,4.19 mM,
